Values belong to the molecule of their own block, whether it stands above or below them.
How the values were obtained:
[1] = test system: primary human foreskin fibroblasts; experiment: Cyr61-regulated gene expression (multi-gene blot, Northern); type: cell-based
Procedure: Purified, soluble, recombinant Cyr61 protein was added to cultures of primary human foreskin fibroblasts for 24 hours. From these cells, mRNA was isolated for preparation of probes to hybridize to a multi-gene blot (Clontech Atlas Human Array 1.2 cat no. 7850-1) containing about 650 genes. The levels of expression of these genes in Cyr61-treated cells were compared to that of control cells. […] These findings have been confirmed by Northern blot analysis showing increases or decreases of the mRNAs in question in Cyr61-treated cells. A time course of expression changes has been established. In particular, by 6 hours after its addition, Cyr61 has induced expression of VEGF-A mRNA and the induction is still evident at 12 and 24 hours post-addition. Also at 12 and 24 hours post-addition, Cyr61 has induced expression of VEGF-A polypeptide. With respect to VEGF-C, induction of mRNA is clearly evident 12 hours after addition of Cyr61 and the induction persists at least through 24 hours post-addition. Cyr61 is expected to induce the expression of VEGF-C polypeptide with similar kinetics.

[2] = test system: 1064SK primary human foreskin fibroblasts; experiment: Fibroblast adhesion assay (methylene blue, A620); type: cell-based; conditions: for support of 1064SK fibroblast adhesion: protein coated on wells; for inhibition by anti-α6 antibody of binding mediated by the coated protein: anti-α6 20 μg/ml
Procedure: The ability of Cyr61 to mediate cell adhesion in normal fibroblasts was investigated. Microtiter wells were coated with purified recombinant Cyr61 protein, and 1064SK primary human foreskin fibroblasts were allowed to adhere under serum-free conditions. […] 50 μl cell suspensions were plated on microtiter wells coated with varying concentrations (0.5-5.0 μg/ml) of Cyr61 protein. After incubation at 37° C. for 30 minutes, adherent cells were fixed and stained with methylene blue.
In another experiment, microtiter wells were coated with either BSA, Cyr61 (2 μg/ml), or vitronectin (VN; 0.5 μg/ml) and blocked with affinity-purified anti-Cyr61 antibodies for one hour at 37° C. before 1064SK cells were plated.
The effects of divalent cations in cell adhesion to Cyr61 was also investigated. […] Data are means from triplicate determinations. […] Inhibition by Ca^2+ is characteristic of adhesion through some members of the β1 family of integrins, including receptors that bind type I collagen, laminin, and vitronectin (integrins α2β1, α6β1, and αVβ1) in fibroblasts, as well as the lymphocyte-specific integrin αLβ2.
The effects of RGD peptides on Cyr61-mediated fibroblast binding was tested by plating cells in wells coated with Cyr61 (2 μg/ml). Type I collagen (2 μg/ml) or vitronectin (0.5 μg/ml), 2 mM GRGDSP or GRGESP peptide was then added.
Cells were also pre-incubated with 40 μg/ml monoclonal antibodies against the integrin α5 or the integrin αV subunits at room temperature for 30 minutes, then plated on wells coated with Cyr61 (2 μg/ml), vitronectin (0.5 μg/ml) or fibronectin (FN, 1 μg/ml). […] The data are means, representative of three experiments.
The 1064 SK cells were also analyzed using the monoclonal antibody JBIA, which binds the β1 integrin subunit. Cells were pre-incubated with the antibody (50 μg/ml) before plating on microtiter wells coated with Cyr61 (2 μg/ml), Type I collagen (2 μg/ml), or vitronectin (0.5 μg/ml). […] Data are means, representative of three experiments.
To identify the specific β1 integrin that mediates fibroblast adhesion to Cyr61, the inhibitory effects of function-blocking monoclonal antibodies were tested against various integrin α subunits. […] The data are means, representative of at least three experiments.

[3] = test system: 1064SK human skin fibroblasts; experiment: Human skin fibroblast migration; type: cell-based; conditions: 1064SK cells
[4] = Heparin binding assay (salt elution from heparin-Sepharose/agarose)
NIH 3T3 fibroblasts = experiment: Thymidine incorporation (mitogen potentiation), NIH 3T3; type: cell-based, mouse; conditions: bFGF 15 ng/ml or PDGF-BB 30 ng/ml
Procedure: More specifically, NIH 3T3 fibroblast cells were plated on 24-well plates at 3×10^4 cells/well and grown in DMEM with 10% fetal bovine serum (Intergen Co., Purchase, N.Y.) for 3-4 days and incubated with medium containing 0.2% FBS for the following 48 hours. The following compounds, at the parenthetically noted final concentrations, were then added to the plated cells in fresh DMEM containing 0.2% fbs and [^3H]-thymidine (1 μCi/ml final concentration; ICN Biomedicals, Inc., Costa Mesa, Calif.): bFGF (15 ng/ml), PDGF-BB (30 ng/ml), and murine Cyr61 (0.5-5 μg/ml). These compounds were added to individual plates according to the following pattern: 1) no supplementation; 2) murine Cyr61; 3) bFGF; 4) murine Cyr61 and bFGF; 5) PDGF-BB; and 6) murine Cyr61 and PDGF. After 18-20 hours of incubation, cells were washed with PBS and fixed with 10% trichloroacetic acid. DNA was dissolved in 0.1 N NaOH and thymidine incorporation was determined. […] Without any supplements, 3T3 cells incorporated approximately 1.8×10^4 cpm of [^3H]-thymidine, in the presence or absence of Cyr61. Cells exposed to bFGF alone incorporated about 1.2×10^5 cpm; cells contacting bFGF and murine Cyr61 incorporated 2×10^5 cpm. Cells receiving PDGF-BB incorporated about 1.2×10^5 cpm; and cells exposed to PDGF-BB and murine Cyr61 incorporated approximately 2.4×10^5 cpm.
DNA synthesis for HUVE cells and NIH 3T3 fibroblasts was measured by thymidine incorporation as described previously (Kireeva et al., [1996]) with minor modifications. HUVE cells were grown in 24-well plates to a subconfluent state, serum-starved for 24 hours and treated with F12K medium containing 10% fetal bovine serum (FBS), 1 μCi/ml [^3H]-thymidine and 10 ng/ml basic Fibroblast Growth Factor (bFGF) (Gibco-BRL, Inc.) with various concentrations of Cyr61 and Fisp12 as indicated. NIH 3T3 fibroblasts were grown to subconlfluence, serum-starved for 48 hours, and treated with Minimal Essential Medium (MEM) containing 0.5% FBS, 1 μCi/ml [^3H]-thymidine, bFGF and various concentrations of Cyr61 or Fisp12. Thymidine incorporation into the trichloroacetic acid-insoluble fraction was determined after 24 hour incubation. Logarithmically grown mink lung epithelial cells (Mv1lu, CCL64) were treated with various concentrations of TGF-β1 (Gibco-BRL) and 2 μg/ml of Cyr61 or Fisp12 for 18 hours; [^3H]-thymidine was then added to 1 μCi/ml for 2 hours. Thymidine incorporation was determnined as described above.

B1: Cyr61 NT: Human Cyr61 fragment with domains I, II and III, lacking heparan binding domain IV (protein)
chain: TCPAACHCPLEAPKCAPGVGLVRDGCGCCKVCAKQLNEDCSKTQPCDHTKGLECNFGASSTALKGICRAQSEGRPCEYNSRIYQNGESFQPNCQHQCTCIDGAVGCIPLCPQELSLPNLGCPNPRLVKVTGQCCEEWVCDEDSIKDPMEDQDGLLGKELGFDASEVELTRNNELIAVGKGRSLKRLPVFGMEPRILYNPLQGQKCIVQTTSWSQCSKTCGTGISTRVTNDNPECRLVKETRICEVRPCGQPVYSSLK
induction of VEGF, MMP1, MMP3 etc. [1]: do not induce the expression of the above-referenced genes
support of 1064SK fibroblast adhesion [2]: did not support fibroblast adhesion
migration of human fibroblasts [3]: did support fibroblast migration
migration of human fibroblasts ([3]; listed as human Cyr61 NT): induced 1064SK cell migration

inhibition by anti-α6 antibody of binding mediated by the coated protein [2]: 70%
B2: H2: Cyr61 variant, heparin-binding motif at residues 305-310 replaced with alanine (protein)
chain: TCPAACHCPLEAPKCAPGVGLVRDGCGCCKVCAKQLNEDCSKTQPCDHTKGLECNFGASSTALKGICRAQSEGRPCEYNSRIYQNGESFQPNCKHQCTCIDGAVGCIPLCPQELSLPNLGCPNPRLVKVSGQCCEEWVCDEDSIKDSLDDQDDLLGLDASEVELTRNNELIAIGKGSSLKRLPVFGTEPRVLFNPLHAHGQKCIVQTTSWSQCSKSCGTGISTRVTNDNPECRLVKETRICEVRPCGQPVYSSLKKGKKCSKTKKSPEPVRFTYAGCSSVVAAYAPYCGSCVDGRCCTPLQTRTVKMRFRCEDGEMFSKNVMMIQSCKCNYNCPHPNEASFRLYSLFNDIHKFRD
support of 1064SK fibroblast adhesion [2]: able to support fibroblast adhesion
heparin binding [4]: somewhat decreased heparin-binding affinities

B3: PDGF-BB: Platelet-Derived Growth Factor, BB isoform (protein, UniProt P01127 82-190, looked up)
Platelet-derived growth …: SLGSLTIAEPAMIAECKTRTEVFEISRRLIDRTNANFLVWPPCVEVQRCSGCCNNRNVQCRPTQVQLRPVQVRKIEIVRKKPIFKKATVTLEDHLACKCETVAAARPVT
modifications: BB homodimer
notes: Platelet-Derived Growth Factor, BB isoform
[3H]-thymidine incorporation, growth factor alone (NIH 3T3 fibroblasts): about 1.2×10^5 cpm

B4: heparatinase: Enzyme used to pretreat cells (heparinase I, 2 U/ml) (protein, UniProt Q05819 22-384, looked up)
Heparin lyase I: QQKKSGNIPYRVNVQADSAKQKAIIDNKWVAVGINKPYALQYDDKLRFNGKPSYRFELKAEDNSLEGYAAGETKGRTELSYSYATTNDFKKFPPSVYQNAQKLKTVYHYGKGICEQGSSRSYTFSVYIPSSFPDNATTIFAQWHGAPSRTLVATPEGEIKTLSIEEFLALYDRMIFKKNIAHDKVEKKDKDGKITYVAGKPNGWKVEQGGYPTLAFGFSKGYFYIKANSDRQWLTDKADRNNANPENSEVMKPYSSEYKTSTIAYKMPFAQFPKDCWITFDVAIDWTKYGKEANTILKPGKLDVMMTYTKNKKPQKAHIVNQQEILIGRNDDDGYYFKFGIYRVGNSTVPVTYNLSGYSETAR
1064SK adhesion to Cyr61-coated wells with agent ([2]; Cyr61 2 μg/ml, agent at the level stated in the block, Mg2+ 5.0 mM after EDTA): 0.13 A620
1064SK adhesion to fibronectin-coated wells with agent ([2]; fibronectin 1 μg/ml): 0.66 A620
1064SK adhesion to vitronectin-coated wells with agent ([2]; vitronectin 0.5 μg/ml): 0.63 A620

B5: decorin: Decorin from Sigma (protein, UniProt P21793 31-360, looked up)
Decorin: DEASGIGPEEHFPEVPEIEPMGPVCPFRCQCHLRVVQCSDLGLEKVPKDLPPDTALLDLQNNKITEIKDGDFKNLKNLHTLILINNKISKISPGAFAPLVKLERLYLSKNQLKELPEKMPKTLQELRVHENEITKVRKSVFNGLNQMIVVELGTNPLKSSGIENGAFQGMKKLSYIRIADTNITTIPQGLPPSLTELHLDGNKITKVDAASLKGLNNLAKLGLSFNSISAVDNGSLANTPHLRELHLNNNKLVKVPGGLADHKYIQVVYLHNNNISAIGSNDFCPPGYNTKKASYSGVSLFSNPVQYWEIQPSTFRCVYVRAAVQLGNYK
concentration that inhibited cell adhesion to Cyr61 ([2]; in cell suspension): 10 µg/mL

inhibition by anti-α6 antibody of binding mediated by the coated protein [2]: 69%
B6: H1: Cyr61 variant, lysine/arginine of heparin-binding motif at residues 280-290 replaced with alanine (protein)
chain: TCPAACHCPLEAPKCAPGVGLVRDGCGCCKVCAKQLNEDCSKTQPCDHTKGLECNFGASSTALKGICRAQSEGRPCEYNSRIYQNGESFQPNCKHQCTCIDGAVGCIPLCPQELSLPNLGCPNPRLVKVSGQCCEEWVCDEDSIKDSLDDQDDLLGLDASEVELTRNNELIAIGKGSSLKRLPVFGTEPRVLFNPLHAHGQKCIVQTTSWSQCSKSCGTGISTRVTNDNPECRLVKETRICEVRPCGQPVYSSLKKAGAACSATAKPEPVRFTYAGCSSVKKYRPKYCGSCVDGRCCTPLQTRTVKMRFRCEDGEMFSKNVMMIQSCKCNYNCPHPNEASFRLYSLFNDIHKFRD
support of 1064SK fibroblast adhesion [2]: able to support fibroblast adhesion
heparin binding [4]: somewhat decreased heparin-binding affinities
